This is an account of results in article PMC4523205.

The target in one assay is 7B2 Fab. Briefly: SPR. To be noted: for response: sensorgram read at ~140 seconds after starting injection of 7B2 Fab, parent: est. 1400, read off a plot.
Assay [1] has as its target gp41_(596-606) peptide with Cys604 substituted by Ala, N-terminal biotin (HIV-1) (UniProt P04578). Briefly: SPR; BIAcore 4000; biotinylated 11mer and its alanine-substituted variants on a streptavidin chip; 7B2 (Fab by the legend) at 20 μg/ml; responses of the irrelevant antibody Synagis subtracted.
In assay [2] the target is rhesus macaque FcγR3A-1 (rhesus macaque) (UniProt A3RFZ7). Briefly: SPR; mAb binding to recombinant purified Fc receptors; who was immobilised is not stated.
The target in assay [3] is rhesus macaque FcγR3A-3 (rhesus macaque) (UniProt A3RFZ7). The assay is described as above.
The target of assay [4] is rhesus macaque FcγR3A-1 (rhesus macaque) (UniProt A3RFZ7). Briefly: SPR.
Assay [5] has as its target Env of HIV-1 BaL.B, on virions (HIV-1).
In assay [6] the target is Env of HIV-1 SF162.B, on virions (HIV-1) (UniProt P19550).
The target of assay [7] is Env of SHIV-BaL, on virions (HIV-1 (env of SHIV-BaL)).
Assay [8] deals with human FcγRI (CD64) (human) (UniProt P12314). Put plainly: SPR; mAb binding to recombinant purified Fc receptors; who was immobilised is not stated.
Assay [9] addresses human FcγRIIIa/CD16 (human) (UniProt O75015). The description is as above.
The mark [10] stands for this setting: binding response at saturation (~140 seconds after starting injection of 7B2 Fab).

Like-named read-outs stand apart in the source and are kept apart here.

rhesus macaque FcγR3A-3 (rhesus macaque), sequence (A3RFZ7 21-206): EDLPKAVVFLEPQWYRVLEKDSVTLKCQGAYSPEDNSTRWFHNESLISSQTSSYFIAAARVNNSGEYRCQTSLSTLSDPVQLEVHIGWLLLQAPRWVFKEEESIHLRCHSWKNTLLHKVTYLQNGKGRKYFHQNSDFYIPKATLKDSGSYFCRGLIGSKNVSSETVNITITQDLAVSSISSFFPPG
rhesus macaque FcγR3A-1 (rhesus macaque), sequence (A3RFZ7 21-206): as above
human FcγRI (CD64) (human), sequence (P12314 16-292): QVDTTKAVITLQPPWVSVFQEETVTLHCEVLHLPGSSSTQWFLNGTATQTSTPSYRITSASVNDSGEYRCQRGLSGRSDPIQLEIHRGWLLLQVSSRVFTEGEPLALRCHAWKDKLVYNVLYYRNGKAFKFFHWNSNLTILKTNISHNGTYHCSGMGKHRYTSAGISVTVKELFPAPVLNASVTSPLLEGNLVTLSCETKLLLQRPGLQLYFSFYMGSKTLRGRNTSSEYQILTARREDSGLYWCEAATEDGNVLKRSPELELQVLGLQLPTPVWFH

Regarding “gp41_(596-606) peptide, wild type, N-terminal biotin C598A”, in the assay with 7B2 Fab, the ratio to parent amounted to 25 and the response came out at 200 RU. Moreover, in the assay with 7B2 Fab (setting [10]), the ratio to parent is 0.16.
Regarding “gp41_(596-606) peptide, wild type, N-terminal biotin G600A”, the ratio to parent in the assay with 7B2 Fab and with 7B2 Fab (setting [10]) was 0 throughout.
Turning to “gp41_(596-606) peptide, wild type, N-terminal biotin G597A”, the ratio to parent worked out at 5.15 in the assay with 7B2 Fab and 0.6 in the assay with 7B2 Fab (setting [10]).
As to 7B2 Fab, in assay [1], the off-rate relative to the wild-type peptide (fold) stood at 2.8 fold.
As to “gp41_(596-606) peptide, wild type, N-terminal biotin T605A”, the ratio to parent stood at 0.79 with 7B2 Fab and 0.99 with 7B2 Fab (setting [10]).
On to “gp41_(596-606) peptide, wild type, N-terminal biotin S599A”, for which, in the assay with 7B2 Fab, the ratio to parent came out at 21.4 and the response was 880 RU. Further, the ratio to parent with 7B2 Fab (setting [10]) turned out to be 0.64.
The corresponding values for “gp41_(596-606) peptide, wild type, N-terminal biotin I603A” are 31.7, 430 RU and 0.32.
Regarding “gp41_(596-606) peptide, wild type, N-terminal biotin K601A”, the ratio to parent was 0.59 with 7B2 Fab and 1.24 with 7B2 Fab (setting [10]).
With A32 IgG1_AAA (antibody), in assay [2], the Kd came out at 0.05 µM, the koff was determined as 0.0094 s⁻¹ and the on-rate (kon) was 190000 M⁻¹ s⁻¹. For the same substance, in [3], the Kd was determined as 0.056 µM, the koff was found to be 0.0061 s⁻¹ and the kon worked out at 110000 M⁻¹ s⁻¹.
In assay [4], 7B2 IgG1_AAA yielded a Kd of 0.0929 µM.
As to 7B2 IgG1_AAA (antibody), the neutralisation of HIV-1 BaL in peripheral blood monocytes differentiated into macrophages, ID50 in assay [5] was 0.05 µg/mL. In [6], this substance came in with a neutralisation of HIV-1 SF162 in macrophages, IC90 of 0.2 not printed. In assay [7], this substance came in with a neutralisation of SHIV-BaL in the TZM-bl assay, IC50 greater than 50 µg/mL. In addition, the Kd in assay [8] was 0.049 µM; in assay [9] it was 1.1 µM; in assay [2], 0.0687 µM; in [3] it was 0.147 µM.
As to A32 IgG1_AAA, the Kd in assay [4] stood at 0.0462 µM.
As for “gp41_(596-606) peptide, wild type, N-terminal biotin W596A”, the ratio to parent with 7B2 Fab was determined as 8.65; with 7B2 Fab (setting [10]) it was 0.83.
“gp41_(596-606) peptide, wild type, N-terminal biotin T606A”: the ratio to parent with 7B2 Fab amounted to 1.11; with 7B2 Fab (setting [10]) it was 0.89.
The corresponding values for “gp41_(596-606) peptide, wild type, N-terminal biotin L602A” are 4.65 and 0.38.
